Results reported in patent publication CN116284407A (SUNSHINE GUOJIAN PHARMACEUTICAL SHANGHAI CO LTD, dated 2023).

Columns and labels:
人GUCY2C-Fc蛋白 = target: T1, 人GUCY2C-Fc蛋白 (human, UniProt P25092 24-430); test: indirect ELISA, GUCY2C-Fc coated at 1 ug/mL, HRP anti-mouse IgG
T1 construct: extracellular domain; not shown: human IgG1 Fc at the C-terminus

[1] = target: T2, 人GUCY2C on cells (人结肠癌细胞CW2; GUCY2C过表达肿瘤细胞CW2-GCC#1) (human, UniProt P25092 24-1073); test: flow cytometry on CW2 human colon cancer cells, PE anti-mouse secondary
T2 construct: whole, on cells; the gene put into CW2-GCC#1 is only called GUCY2C
T2 sequence (P25092 24-1073): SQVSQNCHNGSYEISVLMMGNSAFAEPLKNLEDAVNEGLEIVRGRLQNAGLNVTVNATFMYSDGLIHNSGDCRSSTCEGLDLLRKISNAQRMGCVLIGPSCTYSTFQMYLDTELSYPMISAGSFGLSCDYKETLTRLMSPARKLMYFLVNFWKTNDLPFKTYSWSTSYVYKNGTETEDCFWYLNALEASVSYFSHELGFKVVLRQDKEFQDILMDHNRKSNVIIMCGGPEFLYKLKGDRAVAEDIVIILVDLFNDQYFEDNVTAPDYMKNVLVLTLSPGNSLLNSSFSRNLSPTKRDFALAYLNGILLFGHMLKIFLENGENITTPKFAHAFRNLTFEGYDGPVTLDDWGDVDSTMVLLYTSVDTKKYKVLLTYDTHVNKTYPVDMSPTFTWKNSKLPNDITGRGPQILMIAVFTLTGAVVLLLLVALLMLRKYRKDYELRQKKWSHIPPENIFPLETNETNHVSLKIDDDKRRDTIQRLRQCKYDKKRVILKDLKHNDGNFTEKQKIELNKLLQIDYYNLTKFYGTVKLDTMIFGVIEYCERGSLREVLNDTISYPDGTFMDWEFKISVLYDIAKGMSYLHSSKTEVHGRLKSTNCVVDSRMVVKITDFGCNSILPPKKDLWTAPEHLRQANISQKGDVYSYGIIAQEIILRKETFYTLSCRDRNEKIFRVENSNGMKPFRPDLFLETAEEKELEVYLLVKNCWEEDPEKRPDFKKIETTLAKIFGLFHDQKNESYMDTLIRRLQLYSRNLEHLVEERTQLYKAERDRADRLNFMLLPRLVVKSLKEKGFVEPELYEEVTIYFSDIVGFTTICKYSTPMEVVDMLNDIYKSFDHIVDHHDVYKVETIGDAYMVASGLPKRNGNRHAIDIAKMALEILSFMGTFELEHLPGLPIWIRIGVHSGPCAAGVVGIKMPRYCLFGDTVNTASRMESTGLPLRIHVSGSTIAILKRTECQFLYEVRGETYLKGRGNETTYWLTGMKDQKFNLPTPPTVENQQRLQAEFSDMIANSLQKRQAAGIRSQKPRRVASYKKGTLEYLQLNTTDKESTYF

人GUCY2C-His蛋白 = target: T3, 人GUCY2C-His蛋白 (human, UniProt P25092 24-430); test: ELISA, GUCY2C-His coated at 0.1 ug/mL, HRP anti-mouse secondary (Table 3)
T3 construct: extracellular domain
T3 sequence (P25092 other isoform, or with tags, fused parts or gaps): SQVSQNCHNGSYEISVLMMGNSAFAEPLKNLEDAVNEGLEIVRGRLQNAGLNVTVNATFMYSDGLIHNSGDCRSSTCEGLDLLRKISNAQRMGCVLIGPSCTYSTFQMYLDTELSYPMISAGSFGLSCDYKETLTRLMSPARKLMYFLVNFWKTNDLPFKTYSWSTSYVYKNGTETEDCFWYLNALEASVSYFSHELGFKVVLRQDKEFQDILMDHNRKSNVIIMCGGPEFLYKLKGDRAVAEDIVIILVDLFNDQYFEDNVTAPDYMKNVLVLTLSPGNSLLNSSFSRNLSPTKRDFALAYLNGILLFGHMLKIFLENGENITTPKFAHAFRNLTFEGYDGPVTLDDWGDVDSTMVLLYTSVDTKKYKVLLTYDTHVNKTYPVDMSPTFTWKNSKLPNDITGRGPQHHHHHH

T1 sequence (P25092 24-430): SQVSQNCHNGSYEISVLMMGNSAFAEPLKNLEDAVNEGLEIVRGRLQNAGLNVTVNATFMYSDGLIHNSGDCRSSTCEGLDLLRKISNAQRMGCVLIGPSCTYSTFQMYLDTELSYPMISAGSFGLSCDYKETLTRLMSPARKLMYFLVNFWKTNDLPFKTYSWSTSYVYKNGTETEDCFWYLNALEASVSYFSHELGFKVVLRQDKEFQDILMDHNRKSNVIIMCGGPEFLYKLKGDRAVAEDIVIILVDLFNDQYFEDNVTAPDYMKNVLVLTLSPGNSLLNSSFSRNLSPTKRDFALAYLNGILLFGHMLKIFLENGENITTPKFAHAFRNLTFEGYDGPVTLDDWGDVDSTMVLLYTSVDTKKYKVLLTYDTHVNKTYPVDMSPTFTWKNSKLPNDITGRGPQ

- EC50 (人GUCY2C-Fc蛋白): 0.0215 µg/mL
- EC50 [1]: 6.27 µg/mL
- EC50 (人GUCY2C-His蛋白): 0.12 nM
B1: 55G7A7H2 (antibody, V domains shown)
VH: QVQLQQSGADLARPGASVKMSCKASGYTFTSYTMHWVKQRPGQGLEWIGYINPSSGYTNYNQKFQDKATLTADKSSSTAYMQLSSLTSEDSAVYYCARLGRIGVYWGQGTTLTVSS
VL: QIVLSQSPAILSAFPGEKVTLTCRASSSVSFIHWYQQKPGSSPKPWIYATSNLASGVPDRFSGSGSGTSFSFTISRVEAEDAATYYCQQWSSNPWTFGGGTKLEIK
